The values that follow come from patent US20220042033A1, “COMPOSITION AND METHOD FOR CONFERRING AND/OR ENHANCING TOLERANCE AGAINST HERBICIDES BY USING VARIANTS OF PPO” (FarmHannong Co., Ltd., priority 2017, published 2022).

Sequences and labels used below:
B1: I402T: ApPPO1 (SEQ ID NO: 1) variant (protein)
chain: MPFTHLKPLNRLLGSPRARHPHVAPQAVSVTNTSTTRPGGRSSAPGIPGDAEYDVVIVGAGISGLTTAQALAKQYSDAVPRLLVTEARDCVGGNIITRRDGGYQWEEGPNSFQPSDAVLRAAVDAGVADRLVLGDPKAPRYVYWGGRLRATPSGPDVLTFDLLSLWGKLRAGLGAAGFKAPLPEREESVKEFVTRNLGEEVFQRLIEPFCSGVYAGDPAKLSMKAAFGKVYDLEKGGGSIVGGVLALMKARKQKPPEPRPADLPPKPKGQTVGSFDKGLVTLPSAIAEELGDRVVTGWKLESIDRSGDRFQLTYDTPQGRKKVSARSVALTVPAYTAASLLESRFPKLGKALSSIYYPPVASVALSYPETAILPERLGSDGHLAGFGQLHPRTQGVTTLGTTYASSLFPGRVPEGKVLLLSYFGGATNTRVATMPHGEIVSQVDKDLRKMLIRSDAESPHTVNVTVWPRAIPQFNVGHTDLIQEAKDDLASQGWQGLHLGGNYVAGVALGKCMEAGYKQAAELASHVKSLAT
modifications: Synthetic (Protoporphyrinogen IX oxidase (ApPPO1) of Auxenochlorella protothecoides)
B2: F386V + Y422M: ApPPO1 (SEQ ID NO: 1) variant (protein)
chain: MPFTHLKPLNRLLGSPRARHPHVAPQAVSVTNTSTTRPGGRSSAPGIPGDAEYDVVIVGAGISGLTTAQALAKQYSDAVPRLLVTEARDCVGGNIITRRDGGYQWEEGPNSFQPSDAVLRAAVDAGVADRLVLGDPKAPRYVYWGGRLRATPSGPDVLTFDLLSLWGKLRAGLGAAGFKAPLPEREESVKEFVTRNLGEEVFQRLIEPFCSGVYAGDPAKLSMKAAFGKVYDLEKGGGSIVGGVLALMKARKQKPPEPRPADLPPKPKGQTVGSFDKGLVTLPSAIAEELGDRVVTGWKLESIDRSGDRFQLTYDTPQGRKKVSARSVALTVPAYTAASLLESRFPKLGKALSSIYYPPVASVALSYPETAILPERLGSDGHLAGVGQLHPRTQGVTTLGTIYASSLFPGRVPEGKVLLLSMFGGATNTRVATMPHGEIVSQVDKDLRKMLIRSDAESPHTVNVTVWPRAIPQFNVGHTDLIQEAKDDLASQGWQGLHLGGNYVAGVALGKCMEAGYKQAAELASHVKSLAT
modifications: Synthetic (Protoporphyrinogen IX oxidase (ApPPO1) of Auxenochlorella protothecoides)
B3: F209A + Y422M: ApPPO1 (SEQ ID NO: 1) variant (protein)
chain: MPFTHLKPLNRLLGSPRARHPHVAPQAVSVTNTSTTRPGGRSSAPGIPGDAEYDVVIVGAGISGLTTAQALAKQYSDAVPRLLVTEARDCVGGNIITRRDGGYQWEEGPNSFQPSDAVLRAAVDAGVADRLVLGDPKAPRYVYWGGRLRATPSGPDVLTFDLLSLWGKLRAGLGAAGFKAPLPEREESVKEFVTRNLGEEVFQRLIEPACSGVYAGDPAKLSMKAAFGKVYDLEKGGGSIVGGVLALMKARKQKPPEPRPADLPPKPKGQTVGSFDKGLVTLPSAIAEELGDRVVTGWKLESIDRSGDRFQLTYDTPQGRKKVSARSVALTVPAYTAASLLESRFPKLGKALSSIYYPPVASVALSYPETAILPERLGSDGHLAGFGQLHPRTQGVTTLGTIYASSLFPGRVPEGKVLLLSMFGGATNTRVATMPHGEIVSQVDKDLRKMLIRSDAESPHTVNVTVWPRAIPQFNVGHTDLIQEAKDDLASQGWQGLHLGGNYVAGVALGKCMEAGYKQAAELASHVKSLAT
modifications: Synthetic (Protoporphyrinogen IX oxidase (ApPPO1) of Auxenochlorella protothecoides)
B4: Y422M: ApPPO1 (SEQ ID NO: 1) variant (protein)
chain: MPFTHLKPLNRLLGSPRARHPHVAPQAVSVTNTSTTRPGGRSSAPGIPGDAEYDVVIVGAGISGLTTAQALAKQYSDAVPRLLVTEARDCVGGNIITRRDGGYQWEEGPNSFQPSDAVLRAAVDAGVADRLVLGDPKAPRYVYWGGRLRATPSGPDVLTFDLLSLWGKLRAGLGAAGFKAPLPEREESVKEFVTRNLGEEVFQRLIEPFCSGVYAGDPAKLSMKAAFGKVYDLEKGGGSIVGGVLALMKARKQKPPEPRPADLPPKPKGQTVGSFDKGLVTLPSAIAEELGDRVVTGWKLESIDRSGDRFQLTYDTPQGRKKVSARSVALTVPAYTAASLLESRFPKLGKALSSIYYPPVASVALSYPETAILPERLGSDGHLAGFGQLHPRTQGVTTLGTIYASSLFPGRVPEGKVLLLSMFGGATNTRVATMPHGEIVSQVDKDLRKMLIRSDAESPHTVNVTVWPRAIPQFNVGHTDLIQEAKDDLASQGWQGLHLGGNYVAGVALGKCMEAGYKQAAELASHVKSLAT
modifications: Synthetic (Protoporphyrinogen IX oxidase (ApPPO1) of Auxenochlorella protothecoides)
B5: Y422T: ApPPO1 (SEQ ID NO: 1) variant (protein)
chain: MPFTHLKPLNRLLGSPRARHPHVAPQAVSVTNTSTTRPGGRSSAPGIPGDAEYDVVIVGAGISGLTTAQALAKQYSDAVPRLLVTEARDCVGGNIITRRDGGYQWEEGPNSFQPSDAVLRAAVDAGVADRLVLGDPKAPRYVYWGGRLRATPSGPDVLTFDLLSLWGKLRAGLGAAGFKAPLPEREESVKEFVTRNLGEEVFQRLIEPFCSGVYAGDPAKLSMKAAFGKVYDLEKGGGSIVGGVLALMKARKQKPPEPRPADLPPKPKGQTVGSFDKGLVTLPSAIAEELGDRVVTGWKLESIDRSGDRFQLTYDTPQGRKKVSARSVALTVPAYTAASLLESRFPKLGKALSSIYYPPVASVALSYPETAILPERLGSDGHLAGFGQLHPRTQGVTTLGTIYASSLFPGRVPEGKVLLLSTFGGATNTRVATMPHGEIVSQVDKDLRKMLIRSDAESPHTVNVTVWPRAIPQFNVGHTDLIQEAKDDLASQGWQGLHLGGNYVAGVALGKCMEAGYKQAAELASHVKSLAT
modifications: Synthetic (Protoporphyrinogen IX oxidase (ApPPO1) of Auxenochlorella protothecoides)
B6: Y422I: ApPPO1 (SEQ ID NO: 1) variant (protein)
chain: MPFTHLKPLNRLLGSPRARHPHVAPQAVSVTNTSTTRPGGRSSAPGIPGDAEYDVVIVGAGISGLTTAQALAKQYSDAVPRLLVTEARDCVGGNIITRRDGGYQWEEGPNSFQPSDAVLRAAVDAGVADRLVLGDPKAPRYVYWGGRLRATPSGPDVLTFDLLSLWGKLRAGLGAAGFKAPLPEREESVKEFVTRNLGEEVFQRLIEPFCSGVYAGDPAKLSMKAAFGKVYDLEKGGGSIVGGVLALMKARKQKPPEPRPADLPPKPKGQTVGSFDKGLVTLPSAIAEELGDRVVTGWKLESIDRSGDRFQLTYDTPQGRKKVSARSVALTVPAYTAASLLESRFPKLGKALSSIYYPPVASVALSYPETAILPERLGSDGHLAGFGQLHPRTQGVTTLGTIYASSLFPGRVPEGKVLLLSIFGGATNTRVATMPHGEIVSQVDKDLRKMLIRSDAESPHTVNVTVWPRAIPQFNVGHTDLIQEAKDDLASQGWQGLHLGGNYVAGVALGKCMEAGYKQAAELASHVKSLAT
modifications: Synthetic (Protoporphyrinogen IX oxidase (ApPPO1) of Auxenochlorella protothecoides)
B7: V360M + Y422M: ApPPO1 (SEQ ID NO: 1) variant (protein)
chain: MPFTHLKPLNRLLGSPRARHPHVAPQAVSVTNTSTTRPGGRSSAPGIPGDAEYDVVIVGAGISGLTTAQALAKQYSDAVPRLLVTEARDCVGGNIITRRDGGYQWEEGPNSFQPSDAVLRAAVDAGVADRLVLGDPKAPRYVYWGGRLRATPSGPDVLTFDLLSLWGKLRAGLGAAGFKAPLPEREESVKEFVTRNLGEEVFQRLIEPFCSGVYAGDPAKLSMKAAFGKVYDLEKGGGSIVGGVLALMKARKQKPPEPRPADLPPKPKGQTVGSFDKGLVTLPSAIAEELGDRVVTGWKLESIDRSGDRFQLTYDTPQGRKKVSARSVALTVPAYTAASLLESRFPKLGKALSSIYYPPMASVALSYPETAILPERLGSDGHLAGFGQLHPRTQGVTTLGTIYASSLFPGRVPEGKVLLLSMFGGATNTRVATMPHGEIVSQVDKDLRKMLIRSDAESPHTVNVTVWPRAIPQFNVGHTDLIQEAKDDLASQGWQGLHLGGNYVAGVALGKCMEAGYKQAAELASHVKSLAT
modifications: Synthetic (Protoporphyrinogen IX oxidase (ApPPO1) of Auxenochlorella protothecoides)

This assay deals with ApPPO1. Description: PPO enzyme activity of purified MBP-fused ApPPO1 wild type and variants. It is filed as biochemical, Auxenochlorella protothecoides. The note with it: PPO enzyme activity relative to ApPPO1 wild type; MBP-fused protein. Here is the method: Thus, PPO proteins of wild type and variants were expressed as fused to MBP and were used for experiments.
The following process for purification of PPO protein was performed in a 4° C. cold room. […] The column was washed with 3 column volumes of buffer and the presence of protein in the washing solution was examined. When the protein was no longer detected, the washing procedure was terminated. Then, the MBP-PPO protein was eluted with approximately 2 column volumes of buffer containing 20 mM maltose. The protein concentration of each eluent was determined and the elution was stopped when the protein was no longer detected. Ten microliter of each fraction was investigated for protein quantification and SDS-PAGE analysis. The highly pure fractions of PPO protein variants were used for the enzyme assay.
Since protoporphyrinogen IX, a substrate of PPO protein, was not commercially available, it was chemically synthesized in the laboratory. Overall process was performed in dark under nitrogen stream. […] of protoporphyrin IX was dissolved in 20 ml of 20% (v/v) EtOH, and stirred under dark condition for 30 minutes. The obtained protoporphyrin IX solution was put into a 15 ml screw tube in an amount of 800 μl, and flushed with nitrogen gas for 5 minutes. To this, 1.5 g of sodium amalgam was added and vigorously shaken for 2 minutes. The lid was opened to exhaust hydrogen gas in the tube. Thereafter, the lid was closed and incubated for 3 minutes. The protoporphyrinogen IX solution was filtered using syringe and cellulose membrane filter. To 600 μl of the obtained protoporphyrinogen IX solution, approximately 300 μl of 2M MOPS [3-(N-morpholino) propanesulfonic acid] was added to adjust pH to 8.0. To determine the enzyme activity of PPO protein, a reaction mixture was prepared with the following composition (based on 10 ml): 50 mM Tris-Cl (pH 8.0); 50 mM NaCl; 0.04% (v/v) Tween 20; 40 mM glucose (0.072 g); 5 units glucose oxidase (16.6 mg); and 10 units catalase (1 μl).
Hundred and eighty microliters of a reaction mixture […] were placed in 96 well plates and 20 μl of purified PPO proteins were added. After 50 μl of the mineral oil was layered, the reaction was initiated by adding the substrate, protoporphyrinogen IX solution, to a final concentration of 50 μM. The reaction proceeded at room temperature for 30 min and the fluorescence of protoporphyrin IX was measured using Microplate reader (Sense, Hidex) (excitation: 405 nm; emission: 633 nm). To calculate the PPO enzyme activity, the protoporphyrinogen IX solution was kept open in the air overnight to oxidize the solution. To this, 2.7 N HCl was added, and the absorbance at 408 nm was measured. A standard curve was generated using standard protoporphyrin IX, and PPO activity was measured by calibration of protoporphyrin IX using the standard curve of protoporphyrin IX.
Activities of variants were presented relatively compared to that of wild type.
Regarding B1, the “Activity (%)” value worked out at 16%.
Take B2: the “Activity (%)” value came out at 65%.
In the case of B3, the “Activity (%)” value worked out at 51%.
For the molecule B4, the “Activity (%)” value is listed as 93%.
As for B5, the “Activity (%)” value amounted to 84%.
For the molecule B6, the “Activity (%)” value was 91%.
For the molecule B7, the “Activity (%)” value was 8%.
